B1: 12-1 (antibody, V domains shown)
VH: QVQLVESGGGVVQPGRSLRLSCAASGFTFSYYGMHWVRQAPGKGLEWVAVTSYDGSNKYYADSVKGRFTISRDNSKNTLYLQMNSLRAEDTAVYYCARPQGGSYFAAFDIWGQGTLVTVSS
VL: EIVLTQSPATLSLSPGERATLSCRASQSVSSHLAWYQQKPGQAPRLLIYDVSNRATGIPARFSGSGSGTDFTLTISSLEPEDFAVYYCQQRDTFTFGGGTKVEIK
B2: 12-21 (antibody, V domains shown)
VH: B1 VH with T28S, S30G, Y31G, T51I, Q100K, S103N, F105W, A106N
VL: EIVLTQSPATLSLSPGERATLSCRASQSVNSDLAWYQQKPGQAPRLLIYDASNRATGIPARFSGSGSGTDFTLTISSLEPEDFAVYYCQERSLFGGGTKVEIK
B3: 12-6 (antibody, V domains shown)
VH: B1 VH with T28I, S30R, Y31N, G33A, T51I, Q100R, F105H, A106G
VL: EIVLTQSPATLSLSPGERATLSCRASQSLGNYLAWYQQKPGQAPRLLIYDSSNRATGIPARFSGSGSGTDFTLTISSLEPEDFAVYYCQQRNWPYTFGGGTKVEIK
B4: 12-27 (antibody, V domains shown)
VH: B1 VH with T28S, S30G, Y31G, T51I, N57T, Q100R, F105K, A106D
VL: EIVLTQSPATLSLSPGERATLSCRASDTVSSYLAWYQQKPGQAPRLLIYDTSNRATGIPARFSGSGSGTDFTLTISSLEPEDFAVYYCQQRASWPLSFGGGTKVEIK
B5: 11-16 (antibody, V domains shown)
VH: QVQLVESGGGVVQPGRSLRLSCAASGFTFSDHYMHWVRQAPGKGLEWVAVISYDGSNEYYADSVKGRFTISRDNSKNTLYLQMNSLRAEDTAVYYCAKDLGPAGVDYWGQGTLVTVSS
VL: EIVLTQSPATLSLSPGERATLSCRASQSLGRYLAWYQQKPGQAPRLLIYDSSNRATGIPARFSGSGSGTDFTLTISSLEPEDFAVYYCQQYGDWPETFGGGTKVEIK
B6: 12-11 (antibody, V domains shown)
VH: QVQLVESGGGVVQPGRSLRLSCAASGFSFGGYGMHWVRQAPGKGLEWVAVISYDGSNEYYADSVKGRFTISRDNSKNTLYLQMNSLRAEDTAVYYCAKSYSGSYSSYFDYWGQGTLVTVSS
VL: B5 VL with L29V, R31S, S51A, S52V, Y91R, G92F, D93T, E96T
B7: 12-5 (antibody, V domains shown)
VH: B1 VH with A61S, Q100K, G101S, F105A, A106T, A107Y, I110Y
VL: B5 VL with S28N, L29V, R31Q, Y32S, S51A, Y91R, G92E, D93N, E96P
B8: 12-17 (antibody, V domains shown)
VH: B6 VH with S28T, G31S, S56N, N57H, K98R, S99P, Y100H, S105T, S106A
VL: B5 VL with L29V, G30S, R31K, Y32F, S51A, Q89H, Y91H, G92S, E96L
B9: 12-4 (antibody, V domains shown)
VH: B6 VH with S28T, G30S, G31Y, S56T, E58D, S99P, Y100H, S105R, S106G
VL: B5 VL with L29V, R31S, Y32H, S51A, Y91I, G92S, D93N, E96L
B10: 12-24 (antibody, V domains shown)
VH: B5 VH with D31N, H32F, Y33P, S56N, E58K, L100H, P102D, A103H, G104Y, V105F
VL: B3 VL with L29F, N31D, Y32S, S51A, N92S, W93I, Y95I
B11: 12-2 (antibody, V domains shown)
VH: QVQLVESGGGVVQPGRSLRLSCAASGFIFRSYAMHWVRQAPGKGLEWVAVISYDGSSKYYADSVKGRFTISRDNSKNTLYLQMNSLRAEDTAVYYCARPSSGSYFPPFDYWGQGTLVTVSS
VL: B4 VL with D27Q, T28S, S30D, Y32R, A92S, S93T, L96P, S97V
B12: 12-22 (antibody, V domains shown)
VH: B6 VH with S28T, G30S, G31S, S56N, N57H, K98R, S99P, Y100K, S105V
VL: B5 VL with L29V, G30R, R31H, Y32H, S51A, Q90E, Y91R, G92S, E96I
B13: 12-28 (antibody, V domains shown)
VH: QVQLVESGGGVVQPGRSLRLSCAASGFTFSSYAMHWVRQAPGKGLEWVAVISYDGTNEYYADSEKGRFTISRDNSKNTLYLQMNSLRAEDTAVYYCARAHGGSYFSGMDVWGQGTLVTVSS
VL: B5 VL with L29V, G30R, R31H, Y32H, S51A, Y91S, D93S, E96L
B14: 12-9 (antibody, V domains shown)
VH: B11 VH with I28T, R30S, A33G, S56T, S57T, K58E, F105L, P106G, P107F
VL: B5 VL with L29V, G30S, R31T, Y32S, S51A, S52T, Q90R, Y91R, G92T, E96P
B15: 12-7 (antibody, V domains shown)
VH: B6 VH with S28T, G30S, G31I, G33A, S56T, Y100R, S101G, S105Y, S106G, Y107A
VL: B5 VL with R31N, Y91R, G92T, E96P, T97S
B16: 11-18 (antibody, V domains shown)
VH: B6 VH with S28T, G31T, G33A, S56N, E58K, S99T, Y100G, S105Y, Y107W
VL: EIVLTQSPATLSLSPGERATLSCRASQSLTSYLAWYQQKPGQAPRLLIYDASNRATGIPARFSGSGSGTDFTLTISSLEPEDFAVYYCQQRHYWPPITFGGGTKVEIK
B17: 12-19 (antibody, V domains shown)
VH: B13 VH with T28A, N57Y, E64V, A99S, H100L
VL: B16 VL with L29I, T30S, S31R, A51V, R91S, H92S, Y93N, P96L, I97F
B18: 12-15 (antibody, V domains shown)
VH: B6 VH with E58K, K98R, S99P, S105I, Y107W
VL: B16 VL with L29V, T30S, Y32H, A51V, Q90V, H92S, Y93D, I97L
B19: 12-8 (antibody, V domains shown)
VH: QVQLVESGGGVVQPGRSLRLSCAASGFTFNNYVMHWVRQAPGKGLEWVAVISYDGTNDYYADSVKGRFTISRDNSKNTLYLQMNSLRAEDTAVYYCARGESGSYWGAFDYWGQGTLVTVSS
VL: B16 VL with S28N, L29I, T30G, S31N, Y32H, A51V, H92K, Y93S, I97F
B20: 12-16 (antibody, V domains shown)
VH: B11 VH with P99T, S100L, S101G, P106A, P107A, Y110I
VL: B16 VL with T30D, A51V, H92R, Y93G, I97V
B21: 12-10 (antibody, V domains shown)
VH: B11 VH with S57I, P99T, S100R, S101G, F105Y, P106G, P107A
VL: B16 VL with L29V, T30N, Y32D, H92T, Y93D, I97A
B22: 12-26 (antibody, V domains shown)
VH: B6 VH with S28T, G30S, G31N, G33A, V64E, Y100G, S105F, Y107P
VL: B3 VL with L29V, G30S, N31T, Y32S, S51I, N92R, W93S, P94G, Y95L
B23: 12-29 (antibody, V domains shown)
VH: B1 VH with T28S, Y31N, T51I, S56N, P99S, Q100K, F105Y, A106G, A107P, I110D
VL: B16 VL with S28I, L29I, T30S, A51T, Q90V, H92S, Y93N, I97L
B24: 12-20 (antibody, V domains shown)
VH: B6 VH with E58K, K98R, Y100K, S101G, S105Y, S106G, Y107P
VL: B16 VL with T30G, S31N, A51S, H92N, Y93T, P96G, I97V
B25: 12-13 (antibody, V domains shown)
VH: B6 VH with G30S, G31T, E58K, K98R, S99P, Y100L, S105W, Y107W, Y110P
VL: B16 VL with L29V, T30G, S52V, H92N, Y93S, I97A
B26: 11-20 (antibody, V domains shown)
VH: B1 VH with S30D, Y31D, G33A, T51I, R98S, Q100H, G101S, F105W
VL: B1 VL with S30G, H32Y, V51A, S52V, D92S, T93L, F94W, T95P

Residue numbers refer to the chain shown, from its start.

The assay concerns the target biotinylated SARS-CoV-2 S1 variant B.1.351 (Example 5) (SARS-CoV-2) (UniProt P0DTC2). Put plainly: phage ELISA screening.
In turn, B1 came in with an ELISA of 29.2.

Consider B2, for which the ELISA stood at 11.7.

B3 gave an ELISA of 22.4.

For B4, the ELISA turned out to be 8.83.

As for B5, the ELISA is 4.65.

In the case of B6, the ELISA was 18.8.

In turn, B7 showed an ELISA of 22.8.

In turn, B8 displayed an ELISA of 16.2.

In the case of B9, the ELISA was 23.5.

As for B10, the ELISA amounted to 9.63.

For the molecule B11, the ELISA is 25.9.

Take B12: the ELISA amounted to 10.5.

B13 returned an ELISA of 8.63.

For the molecule B14, the ELISA stood at 19.9.

B15: the ELISA is 22.2.

Consider B16, for which the ELISA was found to be 3.7.

For the molecule B17, the ELISA amounted to 13.8.

Regarding B18, the ELISA was found to be 17.6.

B19 gave an ELISA of 21.4.

In turn, B20 returned an ELISA of 17.

In the case of B21, the ELISA was 19.7.

Molecule B22 showed an ELISA of 9.05.

For B23, the ELISA came out at 7.55.

As to B24, the ELISA amounted to 13.3.

B25 showed an ELISA of 18.1.

B26 gave an ELISA of 3.42.

Source of the values: patent US20230192818A1.
